Reference: paper PMC3765442 (PLoS ONE, 2013)

Experiments:
[1] = target: the molecule itself; assay: AUC; absorption sedimentation equilibrium at 37°C; 1 to 60 µM (monomer equivalents); 14'000, 17'000 and 26'000 rpm; buffer as for velocity runs but without BSA; dimer to monomers
[2] = target: the molecule itself; assay: AUC; fluorescence sedimentation velocity (GFP signal at 488 nm), 22°C; dilution series from about 500 to about 0.5 nM (monomer equivalents); 20 mM Tris-HCl pH 7.5, 300 mM NaCl, 0.2 mg/ml BSA, 2 mM DTT or 0.1 mM TCEP; samples incubated 16 hours at 22°C; dimer to monomers; apparent Kd
[3] = target: the molecule itself; assay: SEC-MALS; Superdex 200 10/30 with in-line multi-angle light scattering; 1 to 4 mg/ml injected in 100 µl (about 1 µM at the peak); 20 mM Tris-HCl pH 7.5, 300 mM NaCl, 2 mM DTT; room temperature; single experiments

B1: EB1c-GFP (C-terminal domain of human EB1, Asp191-Tyr268, C-terminally EGFP-His-tagged) (domain or fragment, UniProt Q15691 191-268, looked up)
chain: DEAAELMQQVNVLKLTVEDLEKERDFYFGKLRNIELICQENEGENDPVLQRIVDILYATDEGFVIPDEGGPQEEQEEY
notes: Calculated monomer mass 38.3 kDa; also called C-terminal domain of EB1; not shown: EGFP, C-terminal, kept
- stoichiometry N [1]: 2

B2: EB1c-GFP[A206K] (domain or fragment, human, UniProt Q15691 191-268, looked up)
chain: B1 chain
notes: As m3, but Ala206 of the EGFP tag is mutated to lysine; the EB1c part is unchanged; not shown: EGFP with A206K, C-terminal, kept
- stoichiometry N [2]: 2

B3: EB3c-GFP (C-terminal domain of human EB3, Ala200-Tyr281, C-terminally EGFP-His-tagged) (domain or fragment, UniProt Q9UPY8 200-281, looked up)
chain: AQILELNQQLVDLKLTVDGLEKERDFYFSKLRDIELICQEHESENSPVISGIIGILYATEEGFAPPEDDEIEEHQQEDQDEY
notes: Calculated monomer mass 38.7 kDa; also called C-terminal domain of EB3; not shown: EGFP, C-terminal, kept
- Kd [2]: 2 nM
- stoichiometry N [3]: 2
